Measurements published in patent EP0480381A1 (NIPPON CHEMIPHAR CO., LTD., dated 1992).

B1: endothelin-1 (peptide, UniProt P05305 53-73, looked up)
peptide: CSCSSLMDKECVYFCHLDIIW
B2: endothelin-3 (peptide, UniProt P14138 97-117, looked up)
peptide: CTCFTYKDKECVYYCHLDIIW

Target: T1, rat endothelin receptor (rat)
T1 sequence (P26684 whole entry, looked up): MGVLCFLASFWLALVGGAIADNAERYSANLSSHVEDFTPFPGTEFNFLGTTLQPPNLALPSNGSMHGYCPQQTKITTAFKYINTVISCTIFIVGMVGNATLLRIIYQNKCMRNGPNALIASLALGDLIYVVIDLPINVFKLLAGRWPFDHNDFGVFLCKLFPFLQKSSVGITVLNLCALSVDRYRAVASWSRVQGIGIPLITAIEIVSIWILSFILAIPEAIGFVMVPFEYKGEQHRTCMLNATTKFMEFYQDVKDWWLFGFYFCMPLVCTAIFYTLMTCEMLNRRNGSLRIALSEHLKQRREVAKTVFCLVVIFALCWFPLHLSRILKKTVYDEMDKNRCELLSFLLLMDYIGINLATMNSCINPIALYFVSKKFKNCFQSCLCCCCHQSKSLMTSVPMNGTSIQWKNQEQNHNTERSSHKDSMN
Test: cell-based or functional assay

Row | Binder | increase of calcium concentration in cytoplasm (fura-2), EC50
1 | B1 | ~20 pM
2 | B2 | ~20 pM
